Data from publication PMC3202562, “A Broad Set of Different Llama Antibodies Specific for a 16 kDa Heat Shock Protein of Mycobacterium tuberculosis” (PLoS ONE, 2011).
Like-named read-outs stand apart in the source and are kept apart here.

Columns and labels:
[1] = target: 16 kDa heat shock protein of M. tuberculosis, in M. tuberculosis lysate (Mycobacterium tuberculosis (lysates of …, UniProt P9WMK1))
[2] = target: T1, purified recombinant 16 kDa heat shock protein of M. tuberculosis (Mycobacterium tuberculosis, UniProt P9WMK1)
T1 sequence (P9WMK1 whole entry): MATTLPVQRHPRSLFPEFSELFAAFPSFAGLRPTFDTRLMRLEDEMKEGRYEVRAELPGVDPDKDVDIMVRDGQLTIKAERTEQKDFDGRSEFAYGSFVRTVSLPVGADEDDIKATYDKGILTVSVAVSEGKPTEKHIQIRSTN

[3] = target: T1, purified recombinant 16 kDa heat shock …; test: far-Western, overlay or dot blot; details: both partners purified

16 kDa heat shock protein of M. tuberculosis, in M. tuberculosis lysate (Mycobacterium tuberculosis, sequence (P9WMK1 whole entry): as above

Binder | binding result [1] | binding result [2] | binding result [3]
A-93 (VHH) VHH: QVQLQESGGGLVQAGGSLRLSCAASRRLYSSYSLGWFRQAPGKEREFVAALGWIANGTYYADSAKGRFTISRGNAMVFLQMNSLKSEDTAVYYCAARLGSVREAPREYTYWGQGTQVTVSS | binds | binds | –
VHH A-28 (VHH, source: E. coli BL21-AI, purified (urea lysis, Ni-NTA)) VHH: QVQLQDSGGGLVQAGDSLRLSCTYSGRSFSNHAMGWFRQAPGKERGFVAAIGWINGGTYYADSVKGRFIISRDNDKNTLYLQMNNLKPEDTAVYYCAARNALRSISFNLSEYAYWGQGTQVTVSS | – | – | binds
